Earlier results on one molecule are cited in US20260256431A1, “IMAGING OF MATRIX METALLOPROTEINASE INHIBITORS” (Micro Vide, LLC, priority 2022, published 2026).

This series deals with MMP-2, MMP-9, and MMP-14.

B1: rTIMP-3: recombinant tissue inhibitor of metalloproteinases-3 (protein, UniProt P35625 24-211, looked up)
Metalloproteinase inhibitor 3: CTCSPSHPQDAFCNSDIVIRAKVVGKKLVKEGPFGTLVYTIKQMKMYRGFTKMPHVQYIHTEASESLCGLKLEVNKYQYLLTGRVYDGKMYTGLCNFVERWDQLTLSQRKGLNYRYHLGCNCKIKSCYYLPCFVTSKNECLWTDMLSNFGYPGYQSKHYACIRQKGGYCSWYRGWAPPDKSIINATDP
With B1, the “MMP activity and LV remodeling and indices of heart failure progression” value (intracoronary delivery in pigs at the time of reperfusion, earlier study) is “favorably reduced”. For the same molecule, the “tissue MMP-2, MMP-9, and MMP-14 activity” value (sustained release of rTIMP-3 from a hydrogel, observed previously) is on record as “inhibition”.
